# Data reported in patent US20160287687A1 (IMMATICS BIOTECHNOLOGIES, published 2016).
# Biological target: T1, HLA-A*02:01 (human)
# T1 construct: MHC monomers first loaded with a UV-sensitive peptide (not identified) that is cleaved by UV light and exchanged for the test peptide; captured on streptavidin plates, detected with anti-β2m; also called peptide-receptive MHC molecules; MHC class I
# Test: UV-ligand exchange + anti-b2m ELISA; peptide exchange yield grade (+ >=10%, ++ >=20%, +++ >=50, ++++ >=75%)
# From the text: Candidate peptides for T cell based therapies according to the present invention were further tested for their MHC binding capacity (affinity). The individual peptide-MHC complexes were produced by UV-ligand exchange, where a UV-sensitive peptide is cleaved upon UV-irradiation, and exchanged with the peptide of interest as analyzed. Only peptide candidates that can effectively bind and stabilize the peptide-receptive MHC molecules prevent dissociation of the MHC complexes. To determine the yield of the exchange reaction, an ELISA was performed based on the detection of the light chain (β2m) of stabilized MHC complexes. The assay was performed as generally described in Rodenko et al. (Rodenko et al., 2006).
# 96 well MAXISorp plates (NUNC) were coated over night with 2 ug/ml streptavidin in PBS at room temperature, washed 4× and blocked for 1h at 37° C. in 2% BSA containing blocking buffer. Refolded HLA-A*02:01/MLA-001 monomers served as standards, covering the range of 15-500 ng/ml. Peptide-MHC monomers of the UV-exchange reaction were diluted 100 fold in blocking buffer. Samples were incubated for 1 h at 37° C., washed four times, incubated with 2 ug/ml HRP conjugated anti-β2m for 1h at 37° C., washed again and detected with TMB solution that is stopped with […]. Absorption was measured at 450 nm. Candidate peptides that show a high exchange yield (preferably higher than 50%, most preferred higher than 75%) are generally preferred for a generation and production of antibodies or fragments thereof, and/or T cell receptors or fragments thereof, as they show sufficient avidity to the MHC molecules and prevent dissociation of the MHC complexes.
row,peptide exchange yield [%],Binder
1,20 to 50,VLHSLQTQL (source gene ANGPTL4) [VLHSLQTQL (SEQ ID NO: 35)]
2,50 to 75,ILAQQVHAL (source gene KIF12) [ILAQQVHAL (SEQ ID NO: 17)]
3,20 to 50,FIQTEAPKEV (source gene RGS5) [FIQTEAPKEV (SEQ ID NO: 11)]
4,20 to 50,ILIKHLVKV (source gene ARHGAP42) [ILIKHLVKV (SEQ ID NO: 15)]
5,50 to 75,ILWREVVTL (source gene HSF4) [ILWREVVTL (SEQ ID NO: 2)]
6,20 to 50,YLYPNLTRL (source gene SLC6A13) [YLYPNLTRL (SEQ ID NO: 5)]
7,50 to 75,ELNNQNFYL (source gene CIT) [ELNNQNFYL (SEQ ID NO: 34)]
8,50 to 75,YIQEHLLQI (source gene IVNS1ABP) [YIQEHLLQI (SEQ ID NO: 40)]
9,20 to 50,ALLTETIFL (source gene LRRK2) [ALLTETIFL (SEQ ID NO: 14)]
10,50 to 75,SLFDWNVKL (source gene UBE2QL1) [SLFDWNVKL (SEQ ID NO: 113)]
11,50 to 75,ILMDFSNSM (source gene ITGB4) [ILMDFSNSM (SEQ ID NO: 56)]
12,20 to 50,SILDAVQRV (source gene PXDNL) [SILDAVQRV (SEQ ID NO: 52)]
13,50 to 75,"FLSPPLPSV (source genes BCKDHA, TMEM91) [FLSPPLPSV (SEQ ID NO: 22)]"
14,50 to 75,YLKDELDEL (source gene SOGA2) [YLKDELDEL (SEQ ID NO: 43)]
15,50 to 75,VLMDLKALL (source gene DDX41) [VLMDLKALL (SEQ ID NO: 106)]
16,50 to 75,ALAVNISAA (source gene CCT6A) [ALAVNISAA (SEQ ID NO: 114)]
17,20 to 50,RLIQGDQILSV (source gene INADL) [RLIQGDQILSV (SEQ ID NO: 21)]
18,50 to 75,GLSEVLVQI (source gene MICAL3) [GLSEVLVQI (SEQ ID NO: 46)]
19,20 to 50,SLFGKKYIL (source gene FHL2) [SLFGKKYIL (SEQ ID NO: 36)]
20,50 to 75,ALFEGVVRQI (source gene RRAD) [ALFEGVVRQI (SEQ ID NO: 104)]

row,peptide exchange yield [%],Binder
1,20 to 50,GLLKTLQKL (source gene CLIC4) [GLLKTLQKL (SEQ ID NO: 41)]
2,20 to 50,VLAPVILML (source gene ABCC3) [VLAPVILML (SEQ ID NO: 37)]
3,20 to 50,AVANTTFTV (source gene HSD3B7) [AVANTTFTV (SEQ ID NO: 20)]
4,50 to 75,NLWPMILTL (source gene ITGA3) [NLWPMILTL (SEQ ID NO: 51)]
5,50 to 75,VLMDLKALLL (source gene DDX41) [VLMDLKALLL (SEQ ID NO: 107)]
6,50 to 75,FLSQDIITV (source gene REN) [FLSQDIITV (SEQ ID NO: 4)]
7,50 to 75,VLFGLDPAVIKV (source gene HSPA12A) [VLFGLDPAVIKV (SEQ ID NO: 31)]
8,50 to 75,SLSDLLVSL (source gene OPN3) [SLSDLLVSL (SEQ ID NO: 27)]
9,20 to 50,LLVPAHLVAA (source gene ESM1) [LLVPAHLVAA (SEQ ID NO: 25)]
10,50 to 75,VLIVEVPGV (source gene ADCY5) [VLIVEVPGV (SEQ ID NO: 49)]
11,20 to 50,SLQKEILYL (source gene ATG2B) [SLQKEILYL (SEQ ID NO: 57)]
12,50 to 75,SLKNNVVSV (source gene TGFBI) [SLKNNVVSV (SEQ ID NO: 59)]
13,20 to 50,LLDLHSYLL (source gene MARCH6) [LLDLHSYLL (SEQ ID NO: 110)]
14,50 to 75,ALADLDELLIRA (source gene HSPG2) [ALADLDELLIRA (SEQ ID NO: 105)]
15,20 to 50,KLQDGLLHI (source gene TIMP1) [KLQDGLLHI (SEQ ID NO: 103)]
16,50 to 75,YLLNLNHLGL (source gene TRAM1) [YLLNLNHLGL (SEQ ID NO: 39)]
17,50 to 75,ILWKDIEYV (source gene SYT9) [ILWKDIEYV (SEQ ID NO: 60)]
18,50 to 75,ALFSFVTAL (source gene TTYH3) [ALFSFVTAL (SEQ ID NO: 44)]
19,20 to 50,FMPEELPQL (source gene THNSL2) [FMPEELPQL (SEQ ID NO: 16)]

# The remaining lines, values behind:
row,Binder,peptide exchange yield [%]
1,TLLETEMLL (source gene CEP44) [TLLETEMLL (SEQ ID NO: 111)],20 to 50
2,FLLEIRQTL (source gene SNX13) [FLLEIRQTL (SEQ ID NO: 53)],20 to 50
3,FLVDFEQSHL (source gene CYP2J2) [FLVDFEQSHL (SEQ ID NO: 58)],≥ 75
4,ALDPSGNQLI (source gene SEMA5B) [ALDPSGNQLI (SEQ ID NO: 12)],20 to 50
5,YVLDLAAKV (source gene ACLY) [YVLDLAAKV (SEQ ID NO: 18)],50 to 75
6,FTLGTTVFL (source gene NDUFC1) [FTLGTTVFL (SEQ ID NO: 24)],50 to 75
7,VLLDTILQL (source gene HSF2BP) [VLLDTILQL (SEQ ID NO: 38)],50 to 75
8,VILDTGTIQL (source gene NAT8) [VILDTGTIQL (SEQ ID NO: 42)],20 to 50
9,LLDPGSLQL (source gene SYNDIG1L) [LLDPGSLQL (SEQ ID NO: 19)],20 to 50
10,VLISVLQAI (source gene CYFIP2) [VLISVLQAI (SEQ ID NO: 108)],20 to 50
11,QLFYTKIFL (source gene PLOD1) [QLFYTKIFL (SEQ ID NO: 30)],20 to 50
12,KLLQNNYGL (source gene RGS5) [KLLQNNYGL (SEQ ID NO: 10)],20 to 50
13,LLFDHLEPIEL (source gene RASGRP3) [LLFDHLEPIEL (SEQ ID NO: 112)],50 to 75
14,KIMAQILTV (source gene LRRK2) [KIMAQILTV (SEQ ID NO: 13)],50 to 75
15,ALVAKGLVQA (source gene AKR1A1) [ALVAKGLVQA (SEQ ID NO: 54)],20 to 50
16,YIQEVVQYI (source gene PLCB1) [YIQEVVQYI (SEQ ID NO: 23)],50 to 75
17,SLSDHIVLL (source gene ITGA3) [SLSDHIVLL (SEQ ID NO: 50)],20 to 50
18,"FIADVVEKI (source genes HTRA1, HTRA3) [FIADVVEKI (SEQ ID NO: 33)]",20 to 50
19,ILLDLEQAL (source gene CUL7) [ILLDLEQAL (SEQ ID NO: 29)],50 to 75
20,YLWSRVEKL (source gene LRRK2) [YLWSRVEKL (SEQ ID NO: 109)],≥ 75
21,YLALILPVL (source gene SLC16A4) [YLALILPVL (SEQ ID NO: 55)],20 to 50
22,TLAEVRAVQEI (source gene SMYD2) [TLAEVRAVQEI (SEQ ID NO: 47)],50 to 75
23,ALIVSLPYL (source gene SLC17A3; also called SLC17A3-001) [ALIVSLPYL (SEQ ID NO: 1)],50 to 75
24,RLLGEVQAL (source gene HSF4) [RLLGEVQAL (SEQ ID NO: 3)],20 to 50
25,VVASNIMEV (source gene PFKFB3) [VVASNIMEV (SEQ ID NO: 48)],20 to 50
26,"ALLGIPLTL (source genes KCNK3, KCNK15) [ALLGIPLTL (SEQ ID NO: 45)]",50 to 75
27,"FIADLVVGL (source genes ENO1, ENO2, ENO3) [FIADLVVGL (SEQ ID NO: 28)]",20 to 50
